Target: T1, CodY-6His (Listeria monocytogenes) (UniProt A0A0H3GGF1)
T1 sequence: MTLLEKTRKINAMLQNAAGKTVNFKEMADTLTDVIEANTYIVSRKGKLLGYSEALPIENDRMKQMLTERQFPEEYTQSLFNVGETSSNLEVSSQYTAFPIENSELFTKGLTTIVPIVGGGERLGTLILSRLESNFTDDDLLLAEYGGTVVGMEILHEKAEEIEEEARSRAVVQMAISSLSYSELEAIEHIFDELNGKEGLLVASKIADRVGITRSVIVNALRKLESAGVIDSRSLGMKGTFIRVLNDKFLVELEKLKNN
Assay: EMSA
Conditions: EMSA: 20 mM Tris-Cl pH 8, 50 mM KCl, 2 mM MgCl2, 0.5 mM EDTA, 1 mM DTT, 0.05% NP-40, 5% glycerol, 25 ug/ml salmon sperm DNA, 4 ng DIG-DNA, 15 min room …

| Substance | Kd |
| --- | --- |
| AAAAGTAACATTTATTTTTCAGAAAAAATTTTTTAATTTTTACCGCGATGGATTCATTCGCGGTTTTTTTGTATGTAATGCATTGGTATATAAGGCTTTATCTATAATGTTAGATTATCTAACATAAATTTGACAAAACATCTAACGTACATTATAATGCTACTATCATCAAAAAAATAATTATGTTTTGAGGGGGAATTGTCGTGAGCGAAAAGGAAATCCGGAGATCGATGCCGCTTTTTCCAATTGGGCCTGTGATGAAGCTAACTGATCTCACTGCTAGACAAATTCGCTACTATG (double strand) [glnR upstream probe] | 74 nM |
| GAAGAAGTGAAGACGTACCTCATTCTTTAGAGAGCATTTACTGGTGAGTAAACGTATTTAAAGAGTGGAGCGTTTTTATTTTTGAATGTTTTAATTTTATTAGTTAGGGTAAAATCGACAGTATACTTAAAATTAGATGGGGTGAAGTGATGAATATTAGTATAGAAATAAAAGAACGTGATACTGACCACATAGACATATTTGTTGCTGGGGAGATCGATGCTTATACAGCGCCAAAGGTAAAAGAAGCATTAGAAGTATATCAAGTTAAAGAGGG (double strand) [rsbV-sigB (LMRG_02317) upstream probe] | 152 nM |
| ATTCAACCCTCTTTCAAAATTCTTTTTCCCAAGTGCTTTAAATGGTACACTAATTATACCATAAGCAACTATTTTTCTATTCATTATTTACAAAAACGCTTTAACGTGCTAATATGCTAATAAACTAAAATATCGTAAAGGAGCTAACCAGATGAACTTAAATAAGAACTTACCAACTGGAACACGTGATAAACTTTTTCGTGAAGCACGAGCTGCATACAAAATTGAGCAACAAGTGAATCATTATTTT (double strand) [hisZ (LMRG_00251) upstream probe] | 150 nM |
| CTTCTATATCTACTCATTAAAACCTAAGCAAACGTTCTCATTAACTACATTTTAAAAAATTTCAGAAAAATTGGTTTTTATGCTTGAAAATATTCTCAACAATGTGTAAACTAACAACATAGGTAAGAAAAGTTGACCAAATTTCAGAAAAATTTACTTAACGCACACAAGCCAATGTTTTTCTTCTTTATAACATTGCATGTATTTGCGTCAGGTTTTCTACTTTTCCTTATAGTCAAAATATTTAAACAAGGAGCGATTATAGTATGGCACAAACATCCACTATCCAAAACGACACAAAGGCAGCCGAAGAATACGCAGCTCGAGTGTTTGAAACAATTAAACAACGGAATCCTGGCGAAACGGAATTCCACCAAGCAGTTGAAGAATTCTTAAACTCTGTTATCCCAGCCCTTGCAAAAGAACCTAAATACGAAGCAAATGGCATTTTAGAACAGTTAACAGAACCCGAACGCCTTATCAGTTTCCGAGTTCCATGGGTGGATGATTCTGGCA (double strand) [gdhA (LMRG_00242) upstream probe] | 57 nM |
| TTAACAAATGTTAGAGAAAAATTAATTCTCCAAGTGATATTCTTAAAATAATTCATGAATATTTTTTCTTATATTAGCTAATTAAGAAGATAATTAACTGCTAATCCAATTTTTAACGGAATAAATTAGTGAAAATGAAGGCCGAATTTTCCTTGTTCTAAAAAGGTTGTATTAGCGTATCACGAGGAGGGAGTATAAGTGGGATTAAATAGATTTATGCGTGCGATGATGGTAGTTTTCATTACTGCCAACTGCATTACGATTAACCCCGACATAATATTTGCAGCGACAGATA (double strand) [actA (LMRG_02626) upstream probe] | 208 nM |
| GTTAATTGCCTCCATTAATATACATATTATAGTTACCATTTTACTATAAAAAAGAACAACTTGACAGAAAAAAAGTGATTAAAAACAGCTCCAGCACTTATTTCCGTGTATCAATACAGAGGTAAAAAGGCATGCCACTTAGGCAAAAGACGGCTATGCTCTTAAGAAATTTTTTTGCTGTTATACCCTACTATTTTGCTATTCTAACAGCAATTTCAAAAAAACACTTCATATTAAGGTCTGTTCGTGATAAAATGAACATAGTTGATAATGATTATCATGTTCATTACATAACATAAAAGGAGGCCTGCTAGCTTATGCAATTAAATGAAACTGCTGTCGGTGAAAAAGTTCGCATCTCAGAATTAAAAATTGAGAACGCTATGCTTAAACGTCGCTTACTTGCACTTGGTTGCGATGAAGGTTGTGATATTTGTATCAAACAAAAAGGACTATTTGGTG (double strand) [feoA (LMRG_01257) upstream probe] | 90 nM |
| TATAATTCTCCTTTAATAGTTTAATGTTGGTTAAACTAGCTGAAGGATTGAAGAGTTTATTTCACTCTTACTTTCTAAACAATCCTAAAGCCATTGTTAGAAAGTCGAGAGCAGTGCAATTTTGTTTGCATCTCTTTGATCACCACCTTGCCTTCATTATAAGCACTTCTGAATTGTTCGTCAATTCTCTTTTATGAATACTCTTCTAAAAACAGGGTAAACGAAAACTATTGGACATTAGAGAAAACATCCATGGGAGGAGAAAGTAAAATGAAAAAAGTAAAAGCAAGTGAAACACTCGTACAAACATTAAAAAATTGGGGTATCGACCACGTATATGGCTTGCCCGGCGATTCGATTGACACCGTAGTTGACGCTTTACGAAAAGAAC (double strand) [poxB (LMRG_00411) upstream probe] | 55 nM |
| CATTAAATCCTCCCTCTTCCCATTATTACCTTTCAATATCCTTAATGGACATTTAACATCTATATACAATACACCCATTTTTTTTAAAGTGCAAGAGTTTTTTACTAAAAATGGAAAAAAATTTAATGAATGCGTTTGCTGCGAATAGAACAACTATAAGCATTGTCTCAAAAATTTTTCCTGGCTAAGAAAAAAACTGGAATAATTTTCGAAAACAAACGTGCTAATCTTATACATGTTCCAACAAACAATTACTTAGGAGGTGCTTTTCTCGTGTTAACTGATGATGTTCCAAAAAAATCACATTTACCATTAATTAAGCATCATTCTAATTACTTATAGCTTCGTTTAGTTGTATTTTCGCAAACAAAAAATTGGGAGGTAACATACAATGTCTAAACAAGCAAAGTCTTTAACCTTATTCGGATTTTTCGCCATCACGGCTTCCATGGTTATGACCGTTTATGAATATCCAACATTTGCCACTTCCG (double strand) [gadC-gadG (LMRG_01480) upstream probe] | 25 nM |
| fliN (LMRG_02874) upstream probe | 26 nM |
| glnR upstream probe | 74 nM |
| ATTCGCTCAACTCCTTCAATATAACTTCAATAACAAGTATAGCAGTTTTATGAACAGGAACCAATTTATTACTATTTGAAATGATTATTTTTATTTAGAAATGTATTTTTAAGCATAATTATGAATAAATGAAAATAAAAAGGTTGATATCTAAAAGCATCGATGTTAATATAAATACAAATGTTTGTATATTTATGAATAGGGGATGTTTAAAATGGCGAAAGAAAAAATCGTATTAGCTTACTCAGGTGGGTTAGATACTTCTGTGGCAATTCAGTGGTTAGTAGAATCAGGTTATGAAGTTATTGCATGTT (double strand) [argG (LMRG_01241) upstream probe] | 70 nM |
| AACCGTCACTTGTGGCGGTTTTTTTGTGTTTTCATCTTTGTGAATTAATTTTGATTTCTTTTAAAATTGGTTATAACTCTCGCGAATTGGGGTAAAAGTAAAGAGGCAGATGAAGATACATTGTGAAAAATTGATATGATAGGACAAGTCGTTTGATTGACAGCGTTTTCTTGATATGATTAAATAGACTCAAGTTAATTAACATGTCAGGAGAAGAGATGACAATCGAAACGATGCAAGGGTACTAGTGTGCCTACGTTTTGATTGTCATTCTTTTTTTGAAGTTAATTGATAATCGGAATGTAAGGGGACTAGTAAGTGTTAAAATTCCGGTGCTACAAATAAGCAAGAAGAAGGAGTTGGAAAAGATGATTGACACAAGTTTAGCAACACAATTTCTAGGTGAAGTCATTGGTACGGCTATACTAATTATTTTAGGTGCTGGTGTCGTAGCAGGTGTTTCACTGAAAAGATCCAAAGCAGAGAATG (double strand) [glpF (LMRG_01431) upstream probe] | 114 nM |

From article PMC4760761
